Consider eight molecules from publication PMC9604149, “Evolution of the vls Antigenic Variability Locus of the Lyme Disease Pathogen and Development of Recombinant Monoclonal Antibodies Targeting Conserved VlsE Epitopes” (Microbiology Spectrum, 2022).

Assay [1] concerns the target T1, recombinant VlsE protein (of strain B31) (Borreliella burgdorferi B31 (clone …, UniProt O06878)).
T1 construct: VlsE of B. burgdorferi B31, clone B31-5A3: the 585-bp vlsE cassette region (including the IR1 through VR6 regions), codon-optimized; 585 bp would encode about 195 residues; also called recombinant B31 VlsE; vlsE cassette; source: E. coli BL21 (pET24), purified (Ni-NTA); estimated purity ~65%
The assay is described as follows: ELISA; validation of the specificity of the purified rMAbs: antigen (IR peptide or VlsE) fixed on the plate; dilution not told. To be noted: both partners purified.

For assay [2], the target named is T1, recombinant VlsE protein (of strain B31). The experiment in a line: ELISA; antigen (IR peptide or recombinant VlsE) coated on a 96-well plate at 10 ug/mL overnight at 4 C, blocked with 5% milk; supernatants of rabbit B cell lines applied; HRP anti-rabbit IgG secondary 1:30,000; OD450; reactive if more than 3 SD above the mean BSA reactivity. To be noted: one partner purified.

B1: recombinant monoclonal antibody 17A8-1 (antibody, V domains shown)
VH: QSVEESGGRLVTPGTPLTLTCTVSGFPLSSYSMAWVRQAPGKGLEYIGFINTDGSAYYASWAKGRITISKTSTTVELKITSPTTEDTATYFCGTGNIWGPGTLVTVSS
VL: AQVLTQTPSSVSAAVGGTVTINCQASQSVSNNNVLAWFQQKPGQPPKRLIYSALTLDSGVPSRFKGSGSGTHFTLTISGVQCDDAATYYCAGGYDCSSNDCIAFGGGTEVVVK
notes: the antibody was detected with an anti-rabbit IgG secondary antibody; Only the variable regions are printed; also called anti-IR4 rMAb; source: made by GenScript
As to B1, the binding result in assay [1] is “binds”.

B2: antibody in the supernatant of rabbit B cell line 28D3 (antibody, V domains shown)
VH: QSVEESGGRLVTPGTPLTLTCTVSGFSLSSYSMGWVRQAPGKGLEYIGMIISNNSTYYASWAKGRITISKTSTTVELKITSPTTEDTATYFCGTGNIWGPGTLVTVSS
VL: AQVLTQTPASVSAAVGGTVTINCQASQSTSNNNALAWFQQKPGQPPKRLIYSALTLDSGVPSRFKGSGSGTHFTLTISGVQCDDAATYYCAGGYDCSSNDCITFGGGTEVVVK
notes: Unpurified antibody of the cell line
B2: the binding result in assay [2] is on record as “binds”.

B3: antibody in the supernatant of rabbit B cell line 17A8 (antibody, V domains shown)
VH: QSVEESGGRLVTPGTPLTLTCTVSGFPLSSYSMAWVRQAPGKGLEYIGFINTDGSAYYASWAKGRITISKTSTTVELKITSPTTEDTATYFCGTGNIWGPGTLVTVSS
VL: AQVLTQTPSSVSAAVGGTVTINCQASQSVSNNNVLAWFQQKPGQPPKRLIYSALTLDSGVPSRFKGSGSGTHFTLTISGVQCDDAATYYCAGGYDCSSNDCIAFGGGTEVVVK
notes: as for B2
B3: in assay [2], the binding result is given as “binds”.

B4: recombinant monoclonal antibody 28D3-1 (antibody, V domains shown)
VH: QSVEESGGRLVTPGTPLTLTCTVSGFSLSSYSMGWVRQAPGKGLEYIGMIISNNSTYYASWAKGRITISKTSTTVELKITSPTTEDTATYFCGTGNIWGPGTLVTVSS
VL: AQVLTQTPASVSAAVGGTVTINCQASQSTSNNNALAWFQQKPGQPPKRLIYSALTLDSGVPSRFKGSGSGTHFTLTISGVQCDDAATYYCAGGYDCSSNDCITFGGGTEVVVK
notes: as for B1
In the case of B4, the binding result in assay [1] is recorded as “binds”.

B5: recombinant monoclonal antibody 1D11-4 (antibody, V domains shown)
VH: QSLVESGGGLVQPEGSLTLTCKASGFSFSSGYDMCWVRQAPGKGLEYIACIDAGDDITHYASWVKGRFTVSKTSSTTVTLQLNSLTVADTATYFCGRFWDLWGPGTLVTVSS
VL: SSVLTQTPSPVSAAVGGTVTINCQSSQSVYDSTWLGWYQQKPGQPPKLLIYKASNLASGVPSRFKGSGSGTHFTLTISDLECDDAATYYCVGGYSGSVDNWAFGGGTEVVVK
notes: the antibody was detected with an anti-rabbit IgG secondary antibody; Only the variable regions are printed; also called anti-IR6 rMAb; source: made by GenScript
In the case of B5, the binding result in assay [1] was “binds”.

B6: antibody in the supernatant of rabbit B cell line 1D11 (antibody, V domains shown)
VH: QSLVESGGGLVQPEGSLTLTCKASGFSFSSGYDMCWVRQAPGKGLEYIACIDAGDDITHYASWVKGRFTVSKTSSTTVTLQLNSLTVADTATYFCGRFWDLWGPGTLVTVSS
VL: SSVLTQTPSPVSAAVGGTVTINCQSSQSVYDSTWLGWYQQKPGQPPKLLIYKASNLASGVPSRFKGSGSGTHFTLTISDLECDDAATYYCVGGYSGSVDNWAFGGGTEVVVK
notes: Unpurified antibody of the cell line; also called anti-IR6 1D11 cell line
As to B6, the binding result in assay [2] is “binds”.

B7: recombinant monoclonal antibody 15E2-1 (antibody, V domains shown)
VH: QSLEESGGGLFKPTDTLTLTCTVSGIDLSSYAMIWVRQAPGKGLEWIGYIWSSGRIWYASWAKGRFTISRTSTTVDLKLASPTTEDTATYFCARLWDIWGPGTLVTVSS
VL: AQVLTQTPSSVSAAVGGTVTISCQASQSLYNGVNLAWYQQKPGQPPKLLIFGASNLESGVSSRFRGSGSGTQFTLTISGVQCDDAATYYCLGEFSCSSADCLAFGGGTEVVVK
notes: as for B1
As to B7, the binding result in assay [1] is given as “binds”.

B8: antibody in the supernatant of rabbit B cell line 15E2 (antibody, V domains shown)
VH: QSLEESGGGLFKPTDTLTLTCTVSGIDLSSYAMIWVRQAPGKGLEWIGYIWSSGRIWYASWAKGRFTISRTSTTVDLKLASPTTEDTATYFCARLWDIWGPGTLVTVSS
VL: AQVLTQTPSSVSAAVGGTVTISCQASQSLYNGVNLAWYQQKPGQPPKLLIFGASNLESGVSSRFRGSGSGTQFTLTISGVQCDDAATYYCLGEFSCSSADCLAFGGGTEVVVK
notes: as for B2
As to B8, in assay [2], the binding result was “binds”.
